The results in this text go back to patent publication US7244591.

The target of the data set is T1, recombinant human parathyroid hormone (hPTH), intact molecule (1-84), P01270.
T1 chain: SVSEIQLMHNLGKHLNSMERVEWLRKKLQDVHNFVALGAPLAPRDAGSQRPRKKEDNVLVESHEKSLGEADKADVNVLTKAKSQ

B1: Yapsin 1 (protein)
chain: ADGYEEIIITNQQSFYSVDLEVGTPPQNVTVLVDTGSSDLWIMGSDNPYCSSNSMGSSRRRVIDKRDDSSSGGSLINDINPFGWLTGTGSAIGPTATGLGGGSGTATQSVPASEATMDCQQYGTFSTSGSSTFRSNNTYFSISYGDGTFASGTFGTDVLDLSDLNVTGLSFAVANETNSTMGVLGIGLPELEVTYSGSTASHSGKAYKYDNFPIVLKNSGAIKSNTYSLYLNDSDAMHGTILFGAVDHSKYTGTLYTIPIVNTLSASGFSSPIQFDVTINGIGISDSGSSNKTLTTTKIPALLDSGTTLTYLPQTVVSMIATELGAQYSSRIGYYVLDCPSDDSMEIVFDFGGFHINAPLSSFILSTGTTCLLGIIPTSDDTGTILGDSFLTNAYVVYDLENLEISMAQARYNTTSENIEIITSSVPSAVKAPGYTNTWSTSASIVTGGNIFTVNSSQTASFSGNLTTSTASATSTSSKRN
For the protein B1, the “cleavage of secreted hPTH into the truncated d1 form (27-84), SDS-PAGE of culture supernatants of wild-type and yps1-disrupted strains” value was “the main protease causative of the cleavage of hPTH in the early culture stage is Yapsin 1”.
